We go through 3 molecules from patent US20190175754A1 (UNIVERSITY OF CINCINNATI, published 2019).

Assay [1] addresses FLT3 on the surface of MONOMAC-6 cells (FLT3-overexpressing AML cell line) (human) (UniProt P36888). Kind of assay: flow cytometry of Cy5.5+ MONOMAC-6 cells, 50 nM Cy5.5-conjugated nanoparticles, 1 h; negative control conjugate (background uptake). Background: A flow cytometer gives signals particle by particle.
Assay [2] concerns the target T1, FLT3 on the surface of MONOMAC-6 cells (FLT3-overexpressing AML cell line) (human, UniProt P36888 27-993).
T1 construct: whole, on cells; Endogenous receptor on a cell line; also called FMS-like tyrosine kinase 3; FLT3 receptor
T1 sequence (looked up): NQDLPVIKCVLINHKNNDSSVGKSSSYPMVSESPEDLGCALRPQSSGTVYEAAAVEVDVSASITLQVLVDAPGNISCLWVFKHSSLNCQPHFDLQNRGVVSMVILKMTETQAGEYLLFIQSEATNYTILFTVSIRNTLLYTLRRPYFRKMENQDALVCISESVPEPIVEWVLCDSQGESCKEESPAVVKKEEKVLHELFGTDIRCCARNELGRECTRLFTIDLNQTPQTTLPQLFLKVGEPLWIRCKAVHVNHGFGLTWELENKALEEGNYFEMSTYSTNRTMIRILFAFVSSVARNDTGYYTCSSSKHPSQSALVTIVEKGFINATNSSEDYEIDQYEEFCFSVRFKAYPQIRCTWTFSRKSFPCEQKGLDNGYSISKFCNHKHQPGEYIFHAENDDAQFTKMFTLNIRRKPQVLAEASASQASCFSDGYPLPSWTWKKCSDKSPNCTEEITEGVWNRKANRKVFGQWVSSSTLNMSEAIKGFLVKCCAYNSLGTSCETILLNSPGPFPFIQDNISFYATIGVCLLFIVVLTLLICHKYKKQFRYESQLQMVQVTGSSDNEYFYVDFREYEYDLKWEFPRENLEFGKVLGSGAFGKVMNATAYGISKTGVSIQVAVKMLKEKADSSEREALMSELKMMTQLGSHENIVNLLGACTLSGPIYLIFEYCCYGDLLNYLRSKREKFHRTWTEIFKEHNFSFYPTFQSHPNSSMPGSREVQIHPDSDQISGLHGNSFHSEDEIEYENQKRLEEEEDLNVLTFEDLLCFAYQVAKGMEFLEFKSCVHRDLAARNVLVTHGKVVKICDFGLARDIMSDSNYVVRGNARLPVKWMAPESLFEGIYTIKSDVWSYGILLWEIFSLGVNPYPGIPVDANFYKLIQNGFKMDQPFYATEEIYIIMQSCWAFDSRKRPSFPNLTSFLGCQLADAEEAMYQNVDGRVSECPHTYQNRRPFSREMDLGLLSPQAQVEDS
The assay can be described thus: flow cytometry of Cy5.5+ MONOMAC-6 cells after 24 h treatment with Cy5.5-conjugated nanoparticles, compared with G7-FLT3L.

For assay [3], the target named is T1, FLT3 on the surface of MONOMAC-6 cells …. Kind of assay: flow cytometry uptake by FLT3-overexpressing AML cells, against control protein conjugated nanoparticles. On the procedure: FIG. 2(B) MONOMAC-6 cells were treated with Cy5.5-conjugated G7-FLT3L or G7-H2B nanoparticles for 24 hrs at the indicated doses. The proportion of Cy5.5⁺ cells were detected through flow cytometry analysis. FIG. 2(C) MONOMAC-6 and U937 cells were treated with 50 nM Cy5.5-conjugated G7-FLT3L or G7-H2B nanoparticles for 1 hr. The proportion of Cy5.5⁺ cells were detected through flow cytometry analysis. FIG. 2(D) MONOMAC-6 cells transfected with MSCV-PIG-miR-150 (miR-150-PIG) or MSCV-PIG (PIG) were treated with 50 nM Cy5.5-conjugated G7-FLT3L or G7-H2B nanoparticles for 1 hr. The proportion of Cy5.5⁺ cells were detected through flow cytometry analysis. Each experiment was repeated independently for at least three times. Average levels of at least three replicates are shown. FIG. 2(E) Cell viability (left panel) and apoptosis (right panel) of MONOMAC-6 cells treated with PBS (Ctrl), 50 nM G7-FLT3L or G7-H2B nanoparticles for 48 hr. *, P<0.05; **, P<0.01. […]

Assay [4] shares this target. Kind of assay: flow cytometry of Cy5.5+ MONOMAC-6 cells, 50 nM Cy5.5-conjugated nanoparticles, 1 h. The source says:
FIG. 2(A) G7-NH₂ PAMAM dendrimers were first conjugated with the near-infrared dye Cy5.5 using an N-hydroxysuccinimide ester linker sulfo-SMCC. Next, the fluorescently-tagged G7-NH₂ (G7-Cy5.5) was conjugated to human recombinant FLT3L (i.e., the soluble FLT3L form with 155 amino acids; ProSpec-Tany Technogene Ltd., East Brunswick, N.J.) at a 1:2 ratio using the heterofunctional linker sulfosuccinimidyl 4-((N-maleimidomethyl) cyclohexane-1-carboxylate) (sulfo-SMCC), resulting in the G7-FLT3L conjugates. FIG. 2(B) MONOMAC-6 cells were treated with Cy5.5-conjugated G7-FLT3L or G7-H2B nanoparticles for 24 hrs at the indicated doses. The proportion of Cy5.5⁺ cells were detected through flow cytometry analysis. FIG. 2(C) MONOMAC-6 and U937 cells were treated with 50 nM Cy5.5-conjugated G7-FLT3L or G7-H2B nanoparticles for 1 hr. The proportion of Cy5.5⁺ cells were detected through flow cytometry analysis. FIG. 2(D) MONOMAC-6 cells transfected with MSCV-PIG-miR-150 (miR-150-PIG) or MSCV-PIG (PIG) were treated with 50 nM Cy5.5-conjugated G7-FLT3L or G7-H2B nanoparticles for 1 hr. The proportion of Cy5.5⁺ cells were detected through flow cytometry analysis. Each experiment was repeated independently for at least three times. Average levels of at least three replicates are shown. […]

Consider “G7-H2B dendrimers (Cy5.5-labelled G7 PAMAM dendrimer conjugated to histone H2B, negative control)”, for which the uptake ratio (proportion of Cy5.5+ cells) in assay [1] is 5.9%.

B1: G7-Flt3L dendrimers (Cy5.5-labelled G7 PAMAM dendrimer conjugated to the synthetic 74-amino acid mouse Flt3L peptide) (peptide)
peptide: SSNFKVKFRELTDHLLKDYPVTVAVNLQDEKHCKALWSLFLAQRWIEQLKTVAGSKMQTLLEDVNTEIHFVTSC
modifications: conjugated to a Cy5.5-labelled G7 PAMAM dendrimer; attachment residue not stated
notes: also called G7-Flt3L nanoparticles; engineered mouse Flt3L peptide
For the molecule B1, the binding result in assay [2] was “binds”.

B2: G7-FLT3L dendrimers (Cy5.5-labelled G7 PAMAM dendrimer conjugated to human recombinant soluble FLT3L) (ligand, UniProt P49771 27-184, looked up)
chain: TQDCSFQHSPISSDFAVKIRELSDYLLQDYPVTVASNLQDEELCGGLWRLVLAQRWMERLKTVAGSKMQGLLERVNTEIHFVTKCAFQPPPSCLRFVQTNISRLLQETSEQLVALKPWITRQNFSRCLELQCQPDSSTLPPPWSPRPLEATAPTAPQP
modifications: conjugated through the sulfo-SMCC linker to a Cy5.5-labelled G7 PAMAM dendrimer (approximately 0.5-1 FLT3L molecules per dendrimer); attachment residue not stated
notes: extracellular domain; The protein is carried on a G7 PAMAM dendrimer labelled with Cy5.5; also called G7-FLT3L nanoparticles; G7-FLT3L conjugates
In the case of B2, the “fold specificity and efficiency in targeting and uptake against nanoparticles conjugated with control proteins” value in assay [3] came out at 4 times. Further, the “uptake ratio (proportion of Cy5.5+ cells)” value in assay [4] was found to be 23.6%.
